In the assay the target is I53-dn5 B. The assay can be described thus: in vitro nanoparticle assembly; SEC on Superose 6, SDS-PAGE.

From patent US20220072120A1 (University of Washington, published 2022) come the findings set out here.

B1: I53-dn5 A.2 (A_LF2_W16G_LS) (designed binder)
chain: MGKYDGSKLRIGILHARGNAEIILELVLGALKRLQEFGVKRENIIIETVPGSFELPYGSKLFVEKQKRLGKPLDAIIPIGVLIRGSTAHFDYIADSTTHQLMKLNFELGIPVIFGVLTTESDEQAEERAGTKAGNHGEDWGAAAVEMATKFN
For the molecule B1, the binding result was “binds”.
